Laboratory results: patent US20210071139A1
“And” between values parts separate entries of the source, which are not always exact repeats. Equal values may be shown once.

Target: TOX (UniProt Q66JW3)
Test: anti-TOX IP from EL4 nuclear extract, LC-MS/MS, MiST vs IgG control

Sequence of TOX (Q66JW3 whole entry): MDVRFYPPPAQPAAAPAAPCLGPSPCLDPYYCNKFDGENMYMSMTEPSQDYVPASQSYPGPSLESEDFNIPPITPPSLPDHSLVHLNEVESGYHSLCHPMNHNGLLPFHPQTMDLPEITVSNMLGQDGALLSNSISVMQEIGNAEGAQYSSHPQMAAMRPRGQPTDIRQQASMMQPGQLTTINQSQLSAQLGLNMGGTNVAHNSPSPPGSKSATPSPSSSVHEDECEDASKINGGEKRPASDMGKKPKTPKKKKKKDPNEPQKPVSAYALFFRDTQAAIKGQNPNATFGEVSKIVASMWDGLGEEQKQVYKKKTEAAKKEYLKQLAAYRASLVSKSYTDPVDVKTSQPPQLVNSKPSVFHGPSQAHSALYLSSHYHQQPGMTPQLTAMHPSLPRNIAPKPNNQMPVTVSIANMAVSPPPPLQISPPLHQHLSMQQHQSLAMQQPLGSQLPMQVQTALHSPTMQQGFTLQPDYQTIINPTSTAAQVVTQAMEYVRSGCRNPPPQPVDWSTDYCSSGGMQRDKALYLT
Sequence of Tmem160 (Q9D938 97-188): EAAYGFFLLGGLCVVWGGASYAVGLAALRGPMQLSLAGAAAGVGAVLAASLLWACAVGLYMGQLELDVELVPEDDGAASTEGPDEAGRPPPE

In order of rising Abundance:
1. Top3b (from UniProt Q9Z321 1-862) (enzyme)  8.1e-07
2. Paxbp1 (from UniProt P58501 1-919)  1.83e-06
3. Soat1 (from UniProt Q61263 1-540) (enzyme)  5.75e-06
4. Actr5 (from UniProt Q80US4 1-605)  9e-06
5. Rrp1 (from UniProt P56183 1-494)  9e-06
6. Rbm25 (from UniProt B2RY56 1-838)  9.24e-06
7. Eif3a (from UniProt P23116 1-1344)  1.17e-05
8. Dld (from UniProt O08749 36-509) (enzyme)  1.87e-05
9. Abcf2 (from UniProt Q99LE6 1-628)  2.89e-05
10. Cwc15 (from UniProt Q9JHS9 2-229)  9.35e-05
11. Rsl1d1 (from UniProt Q8BVY0 1-452)  0.000211

In order of rising MiST Score:
1. Paxbp1 (from UniProt P58501 1-919)  0.75
2. Top3b (from UniProt Q9Z321 1-862) (enzyme)  0.752
3. Actr5 (from UniProt Q80US4 1-605)  0.753
4. Rrp1 (from UniProt P56183 1-494)  0.753
5. Rbm25 (from UniProt B2RY56 1-838)  0.755
6. Abcf2 (from UniProt Q99LE6 1-628)  0.756
7. Cwc15 (from UniProt Q9JHS9 2-229)  0.756
8. Rsl1d1 (from UniProt Q8BVY0 1-452)  0.759
9. Dld (from UniProt O08749 36-509) (enzyme)  0.76
10. Soat1 (from UniProt Q61263 1-540) (enzyme)  0.762
11. Eif3a (from UniProt P23116 1-1344)  0.764

In order of rising Reproducibility:
1. Soat1 (from UniProt Q61263 1-540) (enzyme)  0.249
2. Paxbp1 (from UniProt P58501 1-919)  0.516
3. Top3b (from UniProt Q9Z321 1-862) (enzyme)  0.541
4. Rbm25 (from UniProt B2RY56 1-838)  0.601
5. Eif3a (from UniProt P23116 1-1344)  0.795
6. Cwc15 (from UniProt Q9JHS9 2-229)  0.814
7. Dld (from UniProt O08749 36-509) (enzyme)  0.898
8. Abcf2 (from UniProt Q99LE6 1-628)  0.917
9. Rrp1 (from UniProt P56183 1-494)  0.976
10. Actr5 (from UniProt Q80US4 1-605)  0.979
11. Rsl1d1 (from UniProt Q8BVY0 1-452)  0.984

In order of falling Specificity:
1. Soat1 (from UniProt Q61263 1-540) (enzyme)  1
2. Paxbp1 (from UniProt P58501 1-919)  0.862
3. Top3b (from UniProt Q9Z321 1-862) (enzyme)  0.854
4. Rbm25 (from UniProt B2RY56 1-838)  0.831
5. Eif3a (from UniProt P23116 1-1344)  0.757
6. Cwc15 (from UniProt Q9JHS9 2-229)  0.736
7. Dld (from UniProt O08749 36-509) (enzyme)  0.704
8. Abcf2 (from UniProt Q99LE6 1-628)  0.69
9. Rsl1d1 (from UniProt Q8BVY0 1-452)  0.665
10. Rrp1 (from UniProt P56183 1-494)  0.659
11. Actr5 (from UniProt Q80US4 1-605)  0.658

Target: TOX (UniProt Q66JW3)
Test: TOX co-IP from EL4 nuclear extract, LC-MS/MS, MiST

In order of falling Abundance:
1. Wdr82 (from UniProt Q8BFQ4 1-313)  0.00013
2. Nop2 (from UniProt Q922K7 1-793)  8.3e-05
3. Mrpl3 (from UniProt Q99N95 41-348)  7.04e-05
4. Tmem160  3.49e-05
5. Dnajb11 (from UniProt Q99KV1 23-358)  2.91e-05
6. Dnajb6 (from UniProt O54946 1-365)  2.48e-05
7. Nob1 (from UniProt Q8BW10 1-403)  2.4e-05
8. Gm20517; Med20 (from UniProt Q9R0X0 1-212)  2.2e-05
9. Ap3m1 (from UniProt Q9JKC8 1-418)  1.64e-05
10. Arhgef2 (from UniProt Q60875 1-985)  1.33e-05
11. Hsd17b10 (from UniProt O08756 2-261)  1.27e-05
12. Rbm28 (from UniProt Q8CGC6 2-750)  8.77e-06
13. Gnl2 (from UniProt Q99LH1 1-728)  7.98e-06
14. Ddx23  7.9e-06
15. Sugp1 (from UniProt Q8CH02 1-643)  7.71e-06
16. Cdc16 (from UniProt Q8R349 1-620)  4.84e-06
17. Skap2 (from UniProt Q3UND0 1-358)  4.76e-06
18. Mcm5 (from UniProt P49718 2-734)  4.18e-06
19. Copg1 (from UniProt Q9QZE5 1-874)  3.36e-06
20. Lsg1 (from UniProt Q3UM18 1-644)  2.9e-06
21. Nsf (from UniProt P46460 1-744)  2.87e-06
22. Zcchc8 (from UniProt Q9CYA6 2-709)  2.87e-06
23. Mark2 (from UniProt Q05512 1-776)  2.81e-06
24. Atxn2 (from UniProt O70305 1-1285)  2.51e-06
25. Samd1 (from UniProt D3YXK1 1-519)  2.47e-06
26. Zmym4 (from UniProt A2A791 2-1549)  1.92e-06
27. Orc1 (from UniProt Q9Z1N2 1-840)  1.58e-06
28. Rrbp1 (from UniProt Q99PL5 1-1605)  1.36e-06
29. Nop14 (from UniProt Q8R3N1 1-860)  1.27e-06
30. Tmem214 (from UniProt Q8BM55 2-687)  1.26e-06
31. Cpt1a (from UniProt P97742 2-773)  7.71e-07
32. Orc3 (from UniProt Q9JK30 1-715)  7.41e-07
33. Dhx29 (from UniProt Q6PGC1 1-1365)  5.88e-07
34. Trrap (from UniProt Q80YV3 1-2565)  9.36e-08

In order of falling MiST Score:
1. Mrpl3 (from UniProt Q99N95 41-348)  0.857
2. Hsd17b10 (from UniProt O08756 2-261)  0.857
3. Rbm28 (from UniProt Q8CGC6 2-750)  0.855
4. Tmem214 (from UniProt Q8BM55 2-687)  0.85
5. Mcm5 (from UniProt P49718 2-734)  0.85
6. Orc3 (from UniProt Q9JK30 1-715)  0.848
7. Cpt1a (from UniProt P97742 2-773)  0.847
8. Arhgef2 (from UniProt Q60875 1-985)  0.847
9. Cdc16 (from UniProt Q8R349 1-620)  0.847
10. Dhx29 (from UniProt Q6PGC1 1-1365)  0.847
11. Trrap (from UniProt Q80YV3 1-2565)  0.847
12. Wdr82 (from UniProt Q8BFQ4 1-313)  0.846
13. Tmem160  0.846
14. Skap2 (from UniProt Q3UND0 1-358)  0.845
15. Nop2 (from UniProt Q922K7 1-793)  0.844
16. Copg1 (from UniProt Q9QZE5 1-874)  0.844
17. Gnl2 (from UniProt Q99LH1 1-728)  0.843
18. Orc1 (from UniProt Q9Z1N2 1-840)  0.843
19. Mark2 (from UniProt Q05512 1-776)  0.842
20. Zmym4 (from UniProt A2A791 2-1549)  0.841
21. Nob1 (from UniProt Q8BW10 1-403)  0.84
22. Nop14 (from UniProt Q8R3N1 1-860)  0.84
23. Dnajb11 (from UniProt Q99KV1 23-358)  0.839
24. Nsf (from UniProt P46460 1-744)  0.838
25. Lsg1 (from UniProt Q3UM18 1-644)  0.837
26. Dnajb6 (from UniProt O54946 1-365)  0.837
27. Ddx23  0.836
28. Zcchc8 (from UniProt Q9CYA6 2-709)  0.834
29. Rrbp1 (from UniProt Q99PL5 1-1605)  0.834
30. Sugp1 (from UniProt Q8CH02 1-643)  0.832
31. Gm20517; Med20 (from UniProt Q9R0X0 1-212)  0.831
32. Atxn2 (from UniProt O70305 1-1285)  0.831
33. Samd1 (from UniProt D3YXK1 1-519)  0.829
34. Ap3m1 (from UniProt Q9JKC8 1-418)  0.829

In order of falling Reproducibility:
1. Sptbn1 (from UniProt Q62261 2-2363)  0.996
2. Ap3m1 (from UniProt Q9JKC8 1-418)  0.982
3. Nop2 (from UniProt Q922K7 1-793)  0.981
4. Rbm28 (from UniProt Q8CGC6 2-750)  0.958
5. Nob1 (from UniProt Q8BW10 1-403)  0.955
6. Wdr82 (from UniProt Q8BFQ4 1-313)  0.951
7. Dnajb6 (from UniProt O54946 1-365)  0.944
8. Arhgef2 (from UniProt Q60875 1-985)  0.943
9. Tmem160  0.94
10. Dhx29 (from UniProt Q6PGC1 1-1365)  0.928
11. Sugp1 (from UniProt Q8CH02 1-643)  0.906
12. Gnl2 (from UniProt Q99LH1 1-728)  0.894
13. Mark2 (from UniProt Q05512 1-776)  0.891
14. Samd1 (from UniProt D3YXK1 1-519)  0.886
15. Lsg1 (from UniProt Q3UM18 1-644)  0.886
16. Orc1 (from UniProt Q9Z1N2 1-840)  0.866
17. Ddx23  0.837
18. Atxn2 (from UniProt O70305 1-1285)  0.831
19. Nsf (from UniProt P46460 1-744)  0.808
20. Dnajb11 (from UniProt Q99KV1 23-358)  0.783
21. Mcm5 (from UniProt P49718 2-734)  0.757
22. Rrbp1 (from UniProt Q99PL5 1-1605)  0.675
23. Hsd17b10 (from UniProt O08756 2-261)  0.557
24. Mrpl3 (from UniProt Q99N95 41-348)  0.555
25. Tmem214 (from UniProt Q8BM55 2-687)  0.532
26. Orc3 (from UniProt Q9JK30 1-715)  0.528
27. Cdc16 (from UniProt Q8R349 1-620)  0.524
28. Trrap (from UniProt Q80YV3 1-2565)  0.524
29. Cpt1a (from UniProt P97742 2-773)  0.522
30. Skap2 (from UniProt Q3UND0 1-358)  0.516
31. Copg1 (from UniProt Q9QZE5 1-874)  0.514
32. Zmym4 (from UniProt A2A791 2-1549)  0.503
33. Nop14 (from UniProt Q8R3N1 1-860)  0.501
34. Zcchc8 (from UniProt Q9CYA6 2-709)  0.483
35. Gm20517; Med20 (from UniProt Q9R0X0 1-212)  0.472

In order of falling Specificity:
1. Cpt1a (from UniProt P97742 2-773)  1
2. Tmem214 (from UniProt Q8BM55 2-687)  1
3. Zcchc8 (from UniProt Q9CYA6 2-709)  1
4. Skap2 (from UniProt Q3UND0 1-358)  1
5. Gm20517; Med20 (from UniProt Q9R0X0 1-212)  1
6. Copg1 (from UniProt Q9QZE5 1-874)  1
7. Cdc16 (from UniProt Q8R349 1-620)  1
8. Orc3 (from UniProt Q9JK30 1-715)  1
9. Trrap (from UniProt Q80YV3 1-2565)  1
10. Mrpl3 (from UniProt Q99N95 41-348)  1
11. Nop14 (from UniProt Q8R3N1 1-860)  1
12. Zmym4 (from UniProt A2A791 2-1549)  1
13. Hsd17b10 (from UniProt O08756 2-261)  1
14. Rrbp1 (from UniProt Q99PL5 1-1605)  0.913
15. Mcm5 (from UniProt P49718 2-734)  0.9
16. Dnajb11 (from UniProt Q99KV1 23-358)  0.872
17. Nsf (from UniProt P46460 1-744)  0.859
18. Ddx23  0.843
19. Orc1 (from UniProt Q9Z1N2 1-840)  0.839
20. Atxn2 (from UniProt O70305 1-1285)  0.838
21. Gnl2 (from UniProt Q99LH1 1-728)  0.827
22. Mark2 (from UniProt Q05512 1-776)  0.826
23. Lsg1 (from UniProt Q3UM18 1-644)  0.822
24. Dhx29 (from UniProt Q6PGC1 1-1365)  0.818
25. Rbm28 (from UniProt Q8CGC6 2-750)  0.815
26. Tmem160  0.812
27. Arhgef2 (from UniProt Q60875 1-985)  0.811
28. Samd1 (from UniProt D3YXK1 1-519)  0.811
29. Sugp1 (from UniProt Q8CH02 1-643)  0.807
30. Wdr82 (from UniProt Q8BFQ4 1-313)  0.807
31. Nob1 (from UniProt Q8BW10 1-403)  0.796
32. Dnajb6 (from UniProt O54946 1-365)  0.796
33. Nop2 (from UniProt Q922K7 1-793)  0.789
34. Sptbn1 (from UniProt Q62261 2-2363)  0.777
35. Ap3m1 (from UniProt Q9JKC8 1-418)  0.767

With Sptbn1 (from UniProt Q62261 2-2363) the Abundance was 1.19e-05 and 1.09e-05.

For Sptbn1 (from UniProt Q62261 2-2363), the MiST Score was 0.84.
